Reference: article PMC5324674, “NBP35 interacts with DRE2 in the maturation of cytosolic iron‐sulphur proteins in Arabidopsis thaliana” (The Plant Journal, 2017)

Target: T1, Purified NBP35 (His‐tagged, from E. coli) (Arabidopsis thaliana, UniProt Q8H1Q2 1-350)
T1 construct: The SPR methods say only 'purified NBP35'; also called wild‐type NBP35; source: E. coli, purified (His-Trap HP column, desalted on PD10)
T1 sequence (looked up): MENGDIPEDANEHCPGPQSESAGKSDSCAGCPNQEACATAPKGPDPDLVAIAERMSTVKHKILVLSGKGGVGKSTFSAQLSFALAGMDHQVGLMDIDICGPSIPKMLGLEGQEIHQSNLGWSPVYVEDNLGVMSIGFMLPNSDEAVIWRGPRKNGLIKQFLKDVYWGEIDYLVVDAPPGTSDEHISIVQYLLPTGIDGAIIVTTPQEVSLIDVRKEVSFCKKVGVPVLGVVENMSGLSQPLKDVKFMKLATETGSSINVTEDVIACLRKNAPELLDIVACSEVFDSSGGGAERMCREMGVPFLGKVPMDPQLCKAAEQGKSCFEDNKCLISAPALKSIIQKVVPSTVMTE
Test: SPR; Biacore T200, Streptavidin chip; Strep-tagged DRE2 captured from E. coli cell extract (about 1700 RU); purified NBP35 0-45 uM injected, multi-cycle; 25°C; 20 mM Tris-HCl pH 8, 0.15 M NaCl, 5% glycerol; equilibrium response, Affinity Fit, 1:1 model
Details: one partner purified

B1: Strep‐tagged DRE2 (natural protein)
chain: not shown
notes: DRE2/CIAPIN1, Arabidopsis thaliana, AT5G18400; printed also as 'DRE2-Strep'; also called DRE2‐Strep; source: E. coli cell extract, captured on a Streptavidin sensor chip
- Kd: 3.3 ± 0.9 µM
